Experimental data: publication PMC6072280 (Nuclear medicine and biology, 2018)

Tests used:
GRPR = GRPR (Homo sapiens, UniProt P30550); conditions: GRPR-expressing human PC-3 cells, 125I-[Tyr4]-BBN, 1 h 37°C
in vivo = conditions: male, ICR-SCID, mouse, iv, total radioactivity; for tissue uptake at 1 h / tissue uptake at 4 h / tissue uptake at 24 h: 20 μCi
[1] = tested on: PC-3 tumor-bearing SCID mice

Sequence of GRPR (P30550 whole entry): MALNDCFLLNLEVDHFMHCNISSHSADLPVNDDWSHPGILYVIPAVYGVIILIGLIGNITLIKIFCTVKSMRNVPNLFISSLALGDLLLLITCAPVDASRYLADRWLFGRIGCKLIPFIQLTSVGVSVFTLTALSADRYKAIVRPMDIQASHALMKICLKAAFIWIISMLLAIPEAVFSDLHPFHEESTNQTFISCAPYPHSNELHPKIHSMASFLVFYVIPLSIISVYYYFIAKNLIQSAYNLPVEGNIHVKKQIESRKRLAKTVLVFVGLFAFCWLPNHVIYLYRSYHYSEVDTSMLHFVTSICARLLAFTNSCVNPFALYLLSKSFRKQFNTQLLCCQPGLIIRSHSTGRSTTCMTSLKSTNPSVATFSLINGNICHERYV

CC(C)C[C@H](NC(=O)C[C@H](O)[C@H](CC(C)C)NC(=O)[C@H](Cc1c[nH]cn1)NC(=O)CNC(=O)[C@@H](NC(=O)[C@H](C)NC(=O)[C@H](Cc1c[nH]c2ccccc12)NC(=O)[C@H](CCC(N)=O)NC(=O)[C@@H](Cc1ccccc1)NC(=O)CCCCCNC(=O)[C@H](CCC(=O)NCCCC[C@@H]1NC(=O)[C@@H](Cc2ccc(O)cc2)NC(=O)[C@H](CC(=O)O)NC(=O)CNC(=O)[C@H](CCCNC(=N)N)NC1=O)NC(=O)CN1CCN(CC(=O)O)CCN(CC(=O)O)CCN(CC(=O)O)CC1)C(C)C)C(N)=O [[RGD-Glu-[DO3A]-6-Ahx-RM2]] [[Cyclo-(Arg-Gly-Asp-DTyr-Lys)-(DO3A)-Glu-(6-Ahx-D-Phe-Gln-Trp-Ala-Val-Gly-His-Sta-Leu-NH2)]]
IC50, PC-3 (GRPR): single-digit, nanomolar range

CC(C)C[C@H](NC(=O)C[C@H](O)[C@H](CC(C)C)NC(=O)[C@H](Cc1c[nH]cn1)NC(=O)CNC(=O)[C@@H](NC(=O)[C@H](C)NC(=O)[C@H](Cc1c[nH]c2ccccc12)NC(=O)[C@H](CCC(N)=O)NC(=O)[C@@H](Cc1ccccc1)NC(=O)CCCCCNC(=O)[C@H](CCC(=O)NCCCC[C@@H]1NC(=O)[C@@H](Cc2ccc(O)cc2)NC(=O)[C@H](CC(=O)O)NC(=O)CNC(=O)[C@H](CCCNC(=N)N)NC1=O)NC(=O)CN1CCN(CC(=O)O)CCN(CC(=O)O)CCN(CC(=O)O)CC1)C(C)C)C(N)=O [[RGD-Glu-[[^90Y]Y-DO3A]-6-Ahx-RM2], metal not drawn]
tissue uptake at 1 h (in vivo; bone): 0.45 ± 0.08 %ID/g
tissue uptake at 4 h (in vivo; bone): 0.29 ± 0.05 %ID/g
tissue uptake at 24 h (in vivo; bone): 0.33 ± 0.12 %ID/g
tissue uptake at 1 h (in vivo; brain): 0.03 ± 0.01 %ID/g
tissue uptake at 4 h (in vivo; brain): 0.01 %ID/g
tissue uptake at 1 h (in vivo; heart): 0.31 ± 0.06 %ID/g
tissue uptake at 4 h (in vivo; heart): 0.16 ± 0.05 %ID/g
tissue uptake at 24 h (in vivo; heart): 0.15 ± 0.04 %ID/g
tissue uptake at 1 h (in vivo; kidneys): 2.36 ± 0.49 %ID/g
tissue uptake at 4 h (in vivo; kidneys): 1.54 ± 0.31 %ID/g
tissue uptake at 24 h (in vivo; kidneys): 0.89 ± 0.21 %ID/g
tissue uptake at 1 h (in vivo; large intestine): 0.64 ± 0.12 %ID/g
tissue uptake at 4 h (in vivo; large intestine): 0.66 ± 0.26 %ID/g
tissue uptake at 24 h (in vivo; large intestine): 0.31 ± 0.06 %ID/g
tissue uptake at 1 h (in vivo; liver): 0.39 ± 0.08 %ID/g
tissue uptake at 4 h (in vivo; liver): 0.35 ± 0.07 %ID/g
tissue uptake at 24 h (in vivo; liver): 0.29 ± 0.15 %ID/g
tissue uptake at 1 h (in vivo; lung): 0.8 ± 0.27 %ID/g
tissue uptake at 4 h (in vivo; lung): 0.44 ± 0.06 %ID/g
tissue uptake at 24 h (in vivo; lung): 0.37 ± 0.1 %ID/g
tissue uptake at 1 h (in vivo; muscle): 0.22 ± 0.06 %ID/g
tissue uptake at 4 h (in vivo; muscle): 0.11 ± 0.02 %ID/g
tissue uptake at 24 h (in vivo; muscle): 0.1 ± 0.03 %ID/g
tissue uptake at 1 h (in vivo; pancreas): 6.81 ± 0.92 %ID/g
tissue uptake at 4 h (in vivo; pancreas): 0.55 ± 0.12 %ID/g
tissue uptake at 24 h (in vivo; pancreas): 0.27 ± 0.05 %ID/g
tissue uptake at 1 h (in vivo; small intestine): 1.41 ± 0.32 %ID/g
tissue uptake at 4 h (in vivo; small intestine): 0.39 ± 0.09 %ID/g
tissue uptake at 24 h (in vivo; small intestine): 0.34 ± 0.07 %ID/g
tissue uptake at 1 h (in vivo; spleen): 1.36 ± 0.25 %ID/g
tissue uptake at 4 h (in vivo; spleen): 1.07 ± 0.18 %ID/g
tissue uptake at 24 h (in vivo; spleen): 1.21 ± 0.23 %ID/g
tissue uptake at 1 h (in vivo; stomach): 1.19 ± 0.34 %ID/g
tissue uptake at 4 h (in vivo; stomach): 0.33 ± 0.07 %ID/g
tissue uptake at 24 h (in vivo; stomach): 0.22 ± 0.03 %ID/g
tissue uptake at 1 h (in vivo; tumor (PC-3 xenograft)): 8.7 ± 0.35 %ID/g
tissue uptake at 4 h (in vivo; tumor (PC-3 xenograft)): 4.48 ± 0.31 %ID/g
tissue uptake at 24 h (in vivo; tumor (PC-3 xenograft)): 5.28 ± 0.12 %ID/g
dose excreted at 1 h (in vivo; urine, 20 uCi): 84.6 ± 3.52%
dose excreted at 4 h (in vivo; urine, 20 uCi): 93.4 ± 1.26%
dose excreted at 24 h (in vivo; urine, 20 uCi): 92.7 ± 2.06%
tissue uptake dose at 1 h (in vivo; whole blood, 20 uCi): 0.18 ± 0.04 %ID
tissue uptake dose at 4 h (in vivo; whole blood, 20 uCi): 0.01 %ID
tissue uptake dose at 24 h (in vivo; whole blood, 20 uCi): 0.01 %ID
Biodistribution, Urine (urinary excretion) ([1]; 4 h p.i., i.v., n = 5): 93.4 %ID
In vivo stability, RP-HPLC of urinary radioactivity ([1]; urine collected from tumor-bearing mice): eluted with a similar retention time
